Results published in patent EP4763988A1 (Minghui Pharmaceutical (Hangzhou) Ltd., dated 2025).
Where two headings read alike, the source gives them in different places.

Columns and labels:
[1] = biological target: T1, human CDCP1 endogenously expressed on tumor cells (HCT116, SW480, HT-29, LNCaP) (human, UniProt Q9H5V8 30-836); assay: cell-based or functional assay
T1 sequence (looked up): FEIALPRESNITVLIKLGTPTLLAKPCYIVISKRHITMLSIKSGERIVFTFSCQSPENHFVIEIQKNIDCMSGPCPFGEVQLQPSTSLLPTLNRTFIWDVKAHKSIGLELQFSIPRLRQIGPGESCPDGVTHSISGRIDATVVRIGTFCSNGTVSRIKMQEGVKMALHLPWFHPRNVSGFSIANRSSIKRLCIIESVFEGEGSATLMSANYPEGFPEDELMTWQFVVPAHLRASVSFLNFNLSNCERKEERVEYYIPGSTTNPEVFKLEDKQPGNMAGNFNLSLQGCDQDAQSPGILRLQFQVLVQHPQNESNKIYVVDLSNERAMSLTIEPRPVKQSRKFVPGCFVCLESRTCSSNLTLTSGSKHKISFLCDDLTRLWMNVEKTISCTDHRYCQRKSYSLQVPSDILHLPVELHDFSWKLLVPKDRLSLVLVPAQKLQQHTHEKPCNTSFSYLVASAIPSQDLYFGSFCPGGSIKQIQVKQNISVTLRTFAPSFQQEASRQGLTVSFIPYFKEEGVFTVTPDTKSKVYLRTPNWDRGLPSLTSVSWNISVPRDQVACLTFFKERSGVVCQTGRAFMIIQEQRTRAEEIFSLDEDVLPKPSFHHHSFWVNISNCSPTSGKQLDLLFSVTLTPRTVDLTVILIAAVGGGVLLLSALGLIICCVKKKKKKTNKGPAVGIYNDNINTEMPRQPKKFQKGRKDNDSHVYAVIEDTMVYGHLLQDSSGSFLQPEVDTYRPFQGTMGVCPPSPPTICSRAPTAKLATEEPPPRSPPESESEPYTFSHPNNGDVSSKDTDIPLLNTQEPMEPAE

[2] = biological target: T1, human CDCP1 endogenously expressed on …; assay: flow cytometry on HCT116 cells endogenously expressing human CDCP1
[3] = biological target: T1, human CDCP1 endogenously expressed on …; assay: flow cytometry on SW480 cells endogenously expressing human CDCP1
[4] = biological target: T1, human CDCP1 endogenously expressed on …; assay: flow cytometry on LNCaP cells endogenously expressing human CDCP1
[5] = biological target: T2, Human CDCP1, His Tag (KACTUS, Cat.No. CDC-HM101) (human, UniProt Q9H5V8 30-667, limits assumed); assay: ELISA, plate-coated CDCP1 His Tag 0.5 ug/mL, four-parameter fit
T2 construct: Bought protein coated on ELISA plates; also called human CDCP1 antigen; CDCP1 antigen; not shown: His tag
T2 sequence (looked up): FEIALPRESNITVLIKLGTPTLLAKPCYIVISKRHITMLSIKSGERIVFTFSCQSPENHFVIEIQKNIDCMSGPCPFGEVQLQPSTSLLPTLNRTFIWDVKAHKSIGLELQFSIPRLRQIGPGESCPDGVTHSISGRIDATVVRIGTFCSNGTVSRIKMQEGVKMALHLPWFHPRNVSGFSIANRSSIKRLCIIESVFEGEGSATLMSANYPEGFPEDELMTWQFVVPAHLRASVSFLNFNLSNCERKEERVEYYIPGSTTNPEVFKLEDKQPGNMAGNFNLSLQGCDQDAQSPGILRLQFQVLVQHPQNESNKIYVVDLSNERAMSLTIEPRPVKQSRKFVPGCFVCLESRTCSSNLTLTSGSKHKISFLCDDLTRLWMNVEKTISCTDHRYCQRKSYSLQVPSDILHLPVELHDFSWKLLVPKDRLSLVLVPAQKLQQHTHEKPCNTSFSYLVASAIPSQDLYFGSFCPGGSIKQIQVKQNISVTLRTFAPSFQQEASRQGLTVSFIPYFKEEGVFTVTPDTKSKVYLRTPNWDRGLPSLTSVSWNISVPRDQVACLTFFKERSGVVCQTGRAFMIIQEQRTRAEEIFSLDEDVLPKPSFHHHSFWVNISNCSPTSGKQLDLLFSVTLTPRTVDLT

[6] = biological target: T2, Human CDCP1, His Tag (KACTUS, Cat.No. …); assay: as above; remark: listed apart in the source
[7] = biological target: T3, Human CDCP1, His Tag (KACTUS, Cat.No. CDC-HM101) (human) (UniProt Q9H5V8); assay: ELISA of E. coli lysate supernatant of the clone on human CDCP1 antigen
T3 sequence (looked up): T2 sequence (looked up)

B1: h14A043 (MHAB10-PC2) (antibody, human IgG1, kappa, L234A L235A, V domains shown)
VH: QVQLVQSGAEVKKPGSSVKVSCKASGFNIKDYYMNWVRQAPGQGLEWIGWIDPENANTIYDPKFQGRVTITADESTSTAYMELSSLRSEDTAVYYCYGSSYRFTYWGQGTLVTVSS
VL: EIVLTQSPATLSLSPGERATLSCSASSSVSYLYWYQQKPGQAPRPWIYLTSNLASGVPARFSGSGSGTDFTLTISSLEPEDFAVYYCQQWSSNPFTFGGGTKVEIKR
notes: Variable regions from US20230050380A1 on Human IgG1-Kappa constant regions; also called positive control antibody
EC50 (pM), endocytosis-mediated cell killing (Fab-ZAP, HCT116 cells) [1]: 41 pM
EC50 [2]: 11.9 µg/mL
EC50 [3]: 2.42 µg/mL
EC50 [4]: 2.21 µg/mL

B2: 25A11 (MHAB10-PC1) (antibody, human IgG1, kappa, L234A L235A, V domains shown)
VH: EVQLQQPGAELVKPGASVKMSCKASGYTFTSYYMYWVKQRPGQGLEWIGEINPSHGGTNFNEKFKNKATLTVDKSSSTVYMQLSSLTSEDSAVYYCTRGGNYPYFAMDYWGQGTSVTVSS
VL: DIQMTQTTSSLSASLGDRVTISCRASQDISNYLNWYQQKPDGTVKLLIYYTSRLHSGVPSRFSGSGSGTDYSLTISNLEQEDIATYFCQQGNTLPWTFGGGTKLEIKR
notes: Variable regions from US20080008719A1 on Human IgG1-Kappa constant regions; MW printed 146kDa; also called positive control antibody
EC50 [5]: 0.0115 µg/mL
Top [5]: 1.9 OD450
bottom [5]: 0.0395 OD450
EC50 [6]: 0.0101 µg/mL
Top [6]: 1.35 OD450
bottom [6]: 0.041 OD450

B3: MH1-6-C-2-50 (VHH)
VHH: QLQLVESGGGLVQPGGSLRLSCAASGSDVSANGMVWHRQAPGKQREWVAVISSSGSTNYADSVKGRFTISRDSDKNTMYLQMNNLKPEDTAVYLCGVAHYGQTYWGKGTLVTVSS
OD450 [7]: 0.304
